Assay results published in publication PMC3553014, “Albumin Stimulates the Activity of the Human UDP-Glucuronosyltransferases 1A7, 1A8, 1A10, 2A1 and 2B15, but the Effects Are Enzyme and Substrate Dependent” (PLoS ONE, 2013).

T1: UGT1A8 (Homo sapiens, UniProt Q9HAW9)
T1 sequence (Q9HAW9 26-530): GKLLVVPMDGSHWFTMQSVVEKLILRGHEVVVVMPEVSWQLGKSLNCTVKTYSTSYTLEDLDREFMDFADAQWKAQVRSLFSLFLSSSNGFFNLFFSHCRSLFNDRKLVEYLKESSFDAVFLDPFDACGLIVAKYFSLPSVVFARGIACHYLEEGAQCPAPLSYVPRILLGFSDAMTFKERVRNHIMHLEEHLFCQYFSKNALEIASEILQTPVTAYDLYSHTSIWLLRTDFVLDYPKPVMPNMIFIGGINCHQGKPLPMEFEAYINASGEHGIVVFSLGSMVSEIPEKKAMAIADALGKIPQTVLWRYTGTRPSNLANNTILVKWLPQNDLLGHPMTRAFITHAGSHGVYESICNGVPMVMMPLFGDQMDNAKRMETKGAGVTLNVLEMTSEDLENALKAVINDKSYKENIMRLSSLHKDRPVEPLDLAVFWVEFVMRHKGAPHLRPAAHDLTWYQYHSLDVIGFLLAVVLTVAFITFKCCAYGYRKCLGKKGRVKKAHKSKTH

B1: UGT1A7 (Homo sapiens) (protein)
chain: GKLLVVPMDGSHWFTMQSVVEKLILRGHEVVVVMPEVSWQLGRSLNCTVKTYSTSYTLEDQDREFMVFADARWTAPLRSAFSLLTSSSNGIFDLFFSNCRSLFNDRKLVEYLKESCFDAVFLDPFDACGLIVAKYFSLPSVVFARGIFCHYLEEGAQCPAPLSYVPRLLLGFSDAMTFKERVWNHIMHLEEHLFCPYFFKNVLEIASEILQTPVTAYDLYSHTSIWLLRTDFVLEYPKPVMPNMIFIGGINCHQGKPVPMEFEAYINASGEHGIVVFSLGSMVSEIPEKKAMAIADALGKIPQTVLWRYTGTRPSNLANNTILVKWLPQNDLLGHPMTRAFITHAGSHGVYESICNGVPMVMMPLFGDQMDNAKRMETKGAGVTLNVLEMTSEDLENALKAVINDKSYKENIMRLSSLHKDRPVEPLDLAVFWVEFVMRHKGAPHLRPAAHDLTWYQYHSLDVIGFLLAVVLTVAFITFKCCAYGYRKCLGKKGRVKKAHKSKTH
B2: UGT1A1 (Homo sapiens) (protein)
chain: HAGKILLIPVDGSHWLSMLGAIQQLQQRGHEIVVLAPDASLYIRDGAFYTLKTYPVPFQREDVKESFVSLGHNVFENDSFLQRVIKTYKKIKKDSAMLLSGCSHLLHNKELMASLAESSFDVMLTDPFLPCSPIVAQYLSLPTVFFLHALPCSLEFEATQCPNPFSYVPRPLSSHSDHMTFLQRVKNMLIAFSQNFLCDVVYSPYATLASEFLQREVTVQDLLSSASVWLFRSDFVKDYPRPIMPNMVFVGGINCLHQNPLSQEFEAYINASGEHGIVVFSLGSMVSEIPEKKAMAIADALGKIPQTVLWRYTGTRPSNLANNTILVKWLPQNDLLGHPMTRAFITHAGSHGVYESICNGVPMVMMPLFGDQMDNAKRMETKGAGVTLNVLEMTSEDLENALKAVINDKSYKENIMRLSSLHKDRPVEPLDLAVFWVEFVMRHKGAPHLRPAAHDLTWYQYHSLDVIGFLLAVVLTVAFITFKCCAYGYRKCLGKKGRVKKAHKSKTH
B3: UGT1A8 (Homo sapiens) (protein)
chain: GKLLVVPMDGSHWFTMQSVVEKLILRGHEVVVVMPEVSWQLGKSLNCTVKTYSTSYTLEDLDREFMDFADAQWKAQVRSLFSLFLSSSNGFFNLFFSHCRSLFNDRKLVEYLKESSFDAVFLDPFDACGLIVAKYFSLPSVVFARGIACHYLEEGAQCPAPLSYVPRILLGFSDAMTFKERVRNHIMHLEEHLFCQYFSKNALEIASEILQTPVTAYDLYSHTSIWLLRTDFVLDYPKPVMPNMIFIGGINCHQGKPLPMEFEAYINASGEHGIVVFSLGSMVSEIPEKKAMAIADALGKIPQTVLWRYTGTRPSNLANNTILVKWLPQNDLLGHPMTRAFITHAGSHGVYESICNGVPMVMMPLFGDQMDNAKRMETKGAGVTLNVLEMTSEDLENALKAVINDKSYKENIMRLSSLHKDRPVEPLDLAVFWVEFVMRHKGAPHLRPAAHDLTWYQYHSLDVIGFLLAVVLTVAFITFKCCAYGYRKCLGKKGRVKKAHKSKTH
B4: UGT1A10 (Homo sapiens) (protein)
chain: GKLLVVPMDGSHWFTMQSVVEKLILRGHEVVVVMPEVSWQLERSLNCTVKTYSTSYTLEDQNREFMVFAHAQWKAQAQSIFSLLMSSSSGFLDLFFSHCRSLFNDRKLVEYLKESSFDAVFLDPFDTCGLIVAKYFSLPSVVFTRGIFCHHLEEGAQCPAPLSYVPNDLLGFSDAMTFKERVWNHIVHLEDHLFCQYLFRNALEIASEILQTPVTAYDLYSHTSIWLLRTDFVLDYPKPVMPNMIFIGGINCHQGKPLPMEFEAYINASGEHGIVVFSLGSMVSEIPEKKAMAIADALGKIPQTVLWRYTGTRPSNLANNTILVKWLPQNDLLGHPMTRAFITHAGSHGVYESICNGVPMVMMPLFGDQMDNAKRMETKGAGVTLNVLEMTSEDLENALKAVINDKSYKENIMRLSSLHKDRPVEPLDLAVFWVEFVMRHKGAPHLRPAAHDLTWYQYHSLDVIGFLLAVVLTVAFITFKCCAYGYRKCLGKKGRVKKAHKSKTH
B5: UGT2B7 (Homo sapiens) (protein)
chain: GKVLVWAAEYSHWMNIKTILDELIQRGHEVTVLASSASILFDPNNSSALKIEIYPTSLTKTELENFIMQQIKRWSDLPKDTFWLYFSQVQEIMSIFGDITRKFCKDVVSNKKFMKKVQESRFDVIFADAIFPCSELLAELFNIPFVYSLSFSPGYTFEKHSGGFIFPPSYVPVVMSELTDQMTFMERVKNMIYVLYFDFWFEIFDMKKWDQFYSEVLGRPTTLSETMGKADVWLIRNSWNFQFPYPLLPNVDFVGGLHCKPAKPLPKEMEDFVQSSGENGVVVFSLGSMVSNMTEERANVIASALAQIPQKVLWRFDGNKPDTLGLNTRLYKWIPQNDLLGHPKTRAFITHGGANGIYEAIYHGIPMVGIPLFADQPDNIAHMKARGAAVRVDFNTMSSTDLLNALKRVINDPSYKENVMKLSRIQHDQPVKPLDRAVFWIEFVMRHKGAKHLRVAAHDLTWFQYHSLDVIGFLLVCVATVIFIVTKCCLFCFWKFARKAKKGKND
B6: UGT2B17 (Homo sapiens) (protein)
chain: GKVLVWPTEYSHWINMKTILEELVQRGHEVIVLTSSASILVNASKSSAIKLEVYPTSLTKNDLEDFFMKMFDRWTYSISKNTFWSYFSQLQELCWEYSDYNIKLCEDAVLNKKLMRKLQESKFDVLLADAVNPCGELLAELLNIPFLYSLRFSVGYTVEKNGGGFLFPPSYVPVVMSELSDQMIFMERIKNMIYMLYFDFWFQAYDLKKWDQFYSEVLGRPTTLFETMGKAEMWLIRTYWDFEFPRPFLPNVDFVGGLHCKPAKPLPKEMEEFVQSSGENGIVVFSLGSMISNMSEESANMIASALAQIPQKVLWRFDGKKPNTLGSNTRLYKWLPQNDLLGHPKTKAFITHGGTNGIYEAIYHGIPMVGIPLFADQHDNIAHMKAKGAALSVDIRTMSSRDLLNALKSVINDPIYKENIMKLSRIHHDQPVKPLDRAVFWIEFVMRHKGAKHLRVAAHNLTWIQYHSLDVIAFLLACVATMIFMITKCCLFCFRKLAKTGKKKKRD
B7: UGT2B4 (Homo sapiens) (protein)
chain: GKVLVWPTEFSHWMNIKTILDELVQRGHEVTVLASSASISFDPNSPSTLKFEVYPVSLTKTEFEDIIKQLVKRWAELPKDTFWSYFSQVQEIMWTFNDILRKFCKDIVSNKKLMKKLQESRFDVVLADAVFPFGELLAELLKIPFVYSLRFSPGYAIEKHSGGLLFPPSYVPVVMSELSDQMTFIERVKNMIYVLYFEFWFQIFDMKKWDQFYSEVLGRPTTLSETMAKADIWLIRNYWDFQFPHPLLPNVEFVGGLHCKPAKPLPKEMEEFVQSSGENGVVVFSLGSMVSNTSEERANVIASALAKIPQKVLWRFDGNKPDTLGLNTRLYKWIPQNDLLGHPKTRAFITHGGANGIYEAIYHGIPMVGVPLFADQPDNIAHMKAKGAAVSLDFHTMSSTDLLNALKTVINDPLYKENAMKLSRIHHDQPVKPLDRAVFWIEFVMRHKGAKHLRVAAHDLTWFQYHSLDVTGFLLACVATVIFIITKCLFCVWKFVRTGKKGKRD
B8: UGT1A6 (Homo sapiens) (protein)
chain: DKLLVVPQDGSHWLSMKDIVEVLSDRGHEIVVVVPEVNLLLKESKYYTRKIYPVPYDQEELKNRYQSFGNNHFAERSFLTAPQTEYRNNMIVIGLYFINCQSLLQDRDTLNFFKESKFDALFTDPALPCGVILAEYLGLPSVYLFRGFPCSLEHTFSRSPDPVSYIPRCYTKFSDHMTFSQRVANFLVNLLEPYLFYCLFSKYEELASAVLKRDVDIITLYQKVSVWLLRYDFVLEYPRPVMPNMVFIGGINCKKRKDLSQEFEAYINASGEHGIVVFSLGSMVSEIPEKKAMAIADALGKIPQTVLWRYTGTRPSNLANNTILVKWLPQNDLLGHPMTRAFITHAGSHGVYESICNGVPMVMMPLFGDQMDNAKRMETKGAGVTLNVLEMTSEDLENALKAVINDKSYKENIMRLSSLHKDRPVEPLDLAVFWVEFVMRHKGAPHLRPAAHDLTWYQYHSLDVIGFLLAVVLTVAFITFKCCAYGYRKCLGKKGRVKKAHKSKTH
B9: UGT2B15 (Homo sapiens) (protein)
chain: GKVLVWPTEYSHWINMKTILEELVQRGHEVTVLTSSASTLVNASKSSAIKLEVYPTSLTKNYLEDSLLKILDRWIYGVSKNTFWSYFSQLQELCWEYYDYSNKLCKDAVLNKKLMMKLQESKFDVILADALNPCGELLAELFNIPFLYSLRFSVGYTFEKNGGGFLFPPSYVPVVMSELSDQMIFMERIKNMIHMLYFDFWFQIYDLKKWDQFYSEVLGRPTTLFETMGKAEMWLIRTYWDFEFPRPFLPNVDFVGGLHCKPAKPLPKEMEEFVQSSGENGIVVFSLGSMISNMSEESANMIASALAQIPQKVLWRFDGKKPNTLGSNTRLYKWLPQNDLLGHPKTKAFITHGGTNGIYEAIYHGIPMVGIPLFADQHDNIAHMKAKGAALSVDIRTMSSRDLLNALKSVINDPVYKENVMKLSRIHHDQPMKPLDRAVFWIEFVMRHKGAKHLRVAAHNLTWIQYHSLDVIAFLLACVATVIFIITKFCLFCFRKLAKKGKKKKRD

Columns and labels:
UGT1A8 = molecular target: T1, UGT1A8; assay: UGT1A8-catalyzed glucuronidation, enzyme kinetics; conditions: 1% DMSO; entacapone glucuronidation; absence and presence of 0.1% BSA
Protocol: Recombinant human UGTs 1A1, 1A6, 1A7, 1A8, 1A10, 2A1, 2B4, 2B7 and 2B17 were expressed as His-tagged proteins in baculovirus-infected insect cells as described previously [14]. […] Protein concentrations were determined by the BCA method (Pierce Biotechnology, Rockford, IL, USA).
(§1) The protein concentrations and incubation times for the enzyme kinetic assays were selected based on preliminary assays in order to ensure that the product formation was within the linear range with respect to both protein concentration and time, and that the substrate consumption during the reaction was less than 10%. The initial velocity measurements were performed in either duplicates or triplicates and they are presented as the average values and S.E.
The glucuronidation rates by recombinant enzymes are reported as “expression normalized” values. The relative expression level of each recombinant UGT that was produced in our laboratory was determined using immunoblotting, as previously described [14], [19]. The dot blot assays were performed in triplicate and the average value was used for normalization. […] The “expression normalized” glucuronidation rates were calculated by dividing the measured glucuronidation rates with relative expression level of the each given recombinant UGT.
(§2) In assays containing BSA, the total concentrations of substrate were corrected according to the measured drug binding to BSA, under the specific conditions of each glucuronidation assay.

[1] = substrate: CCN(CC)C(=O)/C(C#N)=C/c1cc(O)c(O)c([N+](=O)[O-])c1; assay: purified protein, by the assay type; conditions: pH 7.4
Protocol: Protein concentrations were determined by the BCA method (Pierce Biotechnology, Rockford, IL, USA).
as §1
The HPLC system consisted of an Agilent 1100 series degasser, binary pump, 100-vial autosampler, thermostated column compartment, multiple wavelengths UV detector, and fluorescence detector (Agilent Technologies, Palo Alto, CA, USA). […] The resulting chromatograms were analyzed with Agilent ChemStation software (rev. B.01.01) on Windows XP Professional. The UPLC system consisted of a Waters Acquity UPLC equipped with column manager, sample manager, binary solvent pump, and photodiode array UV detector (Waters, Milford, MA, USA). The UV detector was equipped with high-sensitivity 2.4 µL flow cell.
as §2

[2] = substrate: Cc1cc(=O)oc2cc(O)ccc12; assay: purified protein, by the assay type; conditions: pH 7.4
[3] = substrate: Oc1cccc2ccccc12; assay: purified protein, by the assay type; conditions: pH 7.4

Molecule	reduction of the UGT activity (UGT1A8)	K0.5 [1]	Vmax [1]	K0.5 [2]	Vmax [2]	K0.5 [3]
C[S+](C)[O-] [DMSO, Dimethyl sulfoxide]	≤ 15%					
B1		33.2±4.0(24.9–41.6) uM	0.00015 µmol/min/mg			
B2				72.6±6.9(58.2–87.0) uM	0.00011 µmol/min/mg	101±11(78–123) uM
B3		73.1±3.7(65.4–80.7) uM	0.0012 µmol/min/mg	134±9(115–154) uM	0.0012 µmol/min/mg	
B4		56.7±2.3(51.9–61.5) uM	0.00091 µmol/min/mg			
B5				301±65(165–436) uM	0.00028 µmol/min/mg	
B6				377±42(291–463) uM	5e-05 µmol/min/mg	540±26(485–595) uM
B7				298±43(210–387) uM		210±12(186–235) uM
B8				76.4±15.1(45.3–107.5) uM	0.0052 µmol/min/mg	8.07±0.48(7.08–9.06) uM
B9				29.6±0.9(27.6–31.5) uM	0.00083 µmol/min/mg	
